Assay results as given in the nanobody polyreactivity screen of Harvey et al. (2022).

Experiment: yeast display, Sf9 membrane polyspecificity reagent, FACS + sequencing; frameworks hold sequencing errors
How it was run: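 Nanobodies from a synthetic yeast display library (Saccharomyces cerevisiae BJ5465), induced 36–48 hours with galactose, were stained 1 hour at 4 °C with 10% biotinylated, detergent-solubilized Sf9 membrane reagent, enriched on streptavidin microbeads, then FACS-sorted. Anti-HA (expression) and streptavidin (reagent binding) fluorescence set low and high (top ~1%) gates. Polyreactivity labels come from the gate of origin. Genes were colony-PCR amplified, MiSeq 2 × 250 sequenced and filtered by CDR length.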

| Sequence | polyreactivity (PSR sort gate) |
| --- | --- |
| QVQLVESGGGLVQAGGSLPLSCAASGITFHRYAMGWDRQAPGKERELVAAMSRGASTNYADSVKGRFTISRDNAKNTVYLQMNSLKPEDTAVYYCAARTIGWYSGSRFDYWGQCTQVTVSS | high polyreactivity |
| QVQLVESGGGLVQAGGSLPLSCAASGITFRYYAMGWYRQAPGKERELVAAITRGGRTNYADSVKGRFTISRDNAKNTVYLQMNSLKPEDTAVYYCATGRDSNFGNSYYYWGQGTQVTVSS | high polyreactivity |
| QVQLVESGGGLVQAGGSLPLSCAASGRIFNSNAMGWYRQAPGKERELVAAIPISGSTNYADSVKGRFTISRDNAKNTVYFQMNSLKPEDTAVYYCAAQRTSHGRGVNGYVKYGYWGQGTIVTVSS | high polyreactivity |
| QVQLVESGGGLVQAGGSLPLSCAASGRIYGGNVMGWYRQAPGKERELVAAISKRGDSTYYADSVKGRFTISRDNAKNTVYLQMNSLKPEDTAVYYCAAVRRGDRGTDMDYWGQGTQVTVSS | high polyreactivity |
| QVQLVESGGGLVQAGGSLPLSCAASGRTFGENAMGWYRQAPGKERELVAAITSGARTYYADSVKGRFTISRDNAKNTVYLQMNSLKPEDTAVYYCAKAYRRFSGGAGKQGGYYWGQGTQVTVSS | high polyreactivity |
| QVQLVESGGGLVQAGGSLPLSCAASGRTFPVYAMGWYRQAPGKERELVARINSGGRTTDADSVKGRFTISRDNAKNTVYLPKNSLKPEDSAVYYCNADSTYFRFDYWGQGTQVTVSS | high polyreactivity |
| QVQLVESGGGLVQAGGSLPLSCAASGRTFWDNAMGWYRQAPGKERELVATITSGDSTNYADSVKWRFTISRDNAKNTVYLQMNSLKPEDTAVYDCARVIVFDAYEFDYWGQGTQVTVSS | low polyreactivity |
| QVQLVESGGGLVQAGGSLPLSCAASGRTINTNAMGWSRQAPGKERELVAAISGGGSTYADSVKGRFTISRDNAKNTVYLQMNSLKPEDTAVYYCAAQNVWIYGFWRDYWGQGTQVTVSS | low polyreactivity |
| QVQLVESGGGLVQAGGSLPLSCAASGSTFAVYAMGWYRQAPGKERELVAAISFSGSTYADSVKGRFTISRDNAKNTVYLQMNSLKPEDTAVYYCAKEYRVFGWWYTKGDYWGQGTQVTVSS | low polyreactivity |
| QVQLVESGGGLVQAGGSLPLSCAASGSTFLAYAMGWYRQAPGKERELVAAITWNSGSSTFYADSVKGRFTISRDNAKNTVYLQMNSLKPEDTAVYYCNADVPSPAYYGDGTPYREDNYWGQGTQVTVSS | low polyreactivity |
| QVQLVESGGGLVQAGGSLPLSCAASGSTFTYYAMGWYRKAPGKEGELVARITWTGGRTYYADSVKGRFTISRGNAKNTVYLQMNSVKTEDTAVYYCNALPYFFETQYDYWGQGTQVTVSS | low polyreactivity |
| QVQLVESGGGLVQAGGSLRFSCAASGFIFYRNTMGWYRQAPGKEREFVAAIRWRGGSTYYADSVKGRFTISRDNAKNTVYLQMNSLKPEDTAVYYCAADTRPGYSGFVYWGQGTQVTVSS | high polyreactivity |
| QVQLVESGGGLVQAGGSLRFSCAASGFIFYYYDMGWYRQAPGKERELVATISRGGSTYYADSVKGRFTISRDNAKNTVYLQMNSLKPEDTAVYYCAAYRSFGYRNWNRFDYWGQGTQVTVSS | high polyreactivity |
| QVQLVESGGGLVQAGGSLRFSCAASGFTFSHYAMGWYRQAPGQERELVAAITWSGGSTYYADSVKGRFTISRDNEKNTVYLQLNSVKPEDTAVYYCAAESYRDGVDYWGQGTQVTVSS | high polyreactivity |
| QVQLVESGGGLVQAGGSLRFSCAASGFTFYEYAMGWYRQAPGKERELVAAINWNGGRTYYADSVKGRFTISRDNAKNTVYLQMNSLKPEDTAVYYCAARVAPKTKISRRYYWGQGTQVNVSS | high polyreactivity |
| QVQLVESGGGLVQAGGSLRFSCAASGFTFYVYAMGWYRHAPGKERELVAAISKSGGSTYYSDSVKGRFTISRDNAKNTVYLQMNSLKPEDTAVYYCAVYDKRSGYRGGHRYNSWGQGTQVTVSS | high polyreactivity |
| QVQLVESGGGLVQAGGSLRFSCAASGFTLQQYTMGWYRQAPGKERELVAAISTSGVRTYYADSVKGRFTISRDNAKNTVYLQMNSLKPEDTAVYYCNAAWVYGIGWYSGYDYWGQGTQVTVSS | high polyreactivity |
| QVQLVESGGGLVQAGGSLRFSCAASGLYYYAMGWYRQAPGKERALVAVITYSGGSTYYADSVKGRFTISRDNGKNSVYLQMNSLKPEDTAVYNCAAEDYYVALPGLYDYWGQGTQVTVSS | low polyreactivity |
| QVQLVESGGGLVQAGGSLRFSCAASGNIFVVYTMGWDRQAPGKERELVADITSIGTSTYYADSVKGRFTISRDNAKNTVYLQMNSLKPEDTAVYYCNKDGSVWGKYTEYYWGQGTQVTVAS | low polyreactivity |
| QVQLVESGGGLVQAGGSLRFSCAASGRIIEQNAMGWYIQAPGKERELVATITRRGGRTYYADSVKGRFTISRDNAKNTVYLQMNSLKPEDTAVYYCNQVSYARGYDYWGQGTQVTVSS | high polyreactivity |
| QVQLVESGGGLVQAGGSLRFSCAASGRTFRYYAMRWYRQAPGKERELVADISSTGRTYYADSVKGRFTISRDNAKNTVYLQMNSLNPEDSAVYYCAADYYSTYRTIYYYWGQGTQVSVSS | low polyreactivity |
| QVQLVESGGGLVQAGGSLRFSCAASGSIFDIYGMGWYRQAPGKESELVASISGGAGSTNYADSVKGRFTISRDYAKNTVYLQMNSLKPEDTAVYYCAAVCADPTEYDYWGQGTQVTVSS | low polyreactivity |

| Sequence | polyreactivity (PSR sort gate) |
| --- | --- |
| QVQLVESGGGLVQAGGSLRFSCAASGSTFGFNAMGWYRQAPGKERELLPLFWSGGSTYYADSVNGRFTISRDNAKNSVYLQMNSLKPDDTAVYYCNKDSTPITRYDYWGQGTQVTVSS | low polyreactivity |
| QVQLVESGGGLVQAGGSLRFSCAASGSTFIGYDMGWYRQEPGKERELVAAISYSDGTYYAESVKGRFTISRDNAKNTVYLQMNSLNPEDTAVYYCAADSLYYRYDYWGQGTQVTVSS | low polyreactivity |
| QVQLVESGGGLVQAGGSLRFSCAASGSTFVYYGMGWDRQAPGKERELVAAITDIGDSTNYADSVKGRFTISRDNAKNTVYLQMNSLKPEDTAVYYCAASGRSVPYYGSPRNDYWGQGTQVTVSS | low polyreactivity |
| QVQLVESGGGLVQAGGSLRFSCAASGSTTYRYAMGWYRQAPGKERELVAAISSRGGSTYYADSVKGRFTISRDNAKNTVYLQMNSLKPEDTAVYYCAVKDRYSFRYDYWGQGTQVTVSS | high polyreactivity |
| QVQLVESGGGLVQAGGSLRFSCAASGYIFYKYAMGWYRHAPGKERELVAAIRRSGGSTYYADSVKGRFTISRDNAKNTVYLQMNSLKPEDTAVYYCAARYFRGSYPMGYWGQGTQVTVSS | high polyreactivity |
| QVQLVESGGGLVQAGGSLRFSCAAYGFIFTQYAMGCYRRAPGKERELVAAISWNGGRTYYADSVNGRFTISRDNEKNTVYLQMNSLKPEDTAVYYCAARIYLSKSFNYWGQGTQVTVSS | high polyreactivity |
| QVQLVESGGGLVQAGGSLRFSSAASGSIFGTYVMGWYRQAPGKERELVAAISWSGGSTYYADSVKGRFTISRDNAKNTVYLQMNSLKPEDTAVYYCAADSIRFEYEYWGQGTQVTVSS | high polyreactivity |
| QVQLVESGGGLVQAGGSLRFSWAASGFIFRSNAMGWYRQAPGKERELVAAISKSGGSTYYADSVKGRFTISRDTAKKTVYLQMNSLKPEDTAVYYCFVDYYPYDYWGQGTQVTVSS | low polyreactivity |
| QVQLVESGGGLVQAGGSLRIICAASGRTFDRYAMRGYRQAPGKERELVAASTRRGTTTYYADSVKVRFSISRDYAKNTVYLQMYSLKPEDTAVYYCAAKRGCVSRPDYGANDESWGQGTQVTVSS | high polyreactivity |
| QVQLVESGGGLVQAGGSLRIICAASGSIFARNAMGWYRQAPGKERELVASITWSGASTYDADSVKGRFTISRDNAMNTVYLQMNSLKPEDTAVYYCAATDQILSLDYSSYEYLGQGTQVTVSS | low polyreactivity |
| QVQLVESGGGLVQAGGSLRISCAASGCTFSFNAMGWYRPAPGKERELVAAITTADSTYYADSVKGRFTISRDNAKNTGYFQMNSLKPEDTAVYYCAADAYWEYDYWGQGTQVTVSS | low polyreactivity |
| QVQLVESGGGLVQAGGSLRISCAASGFICPQNTMGWYRQAPGTERELVAAITSCGSTYYADSVKGRFTISRDNGKNTVYLQMNSLKPEDTAVYYCAARPYGNWTYGYWGQGTQVTVSS | low polyreactivity |
| QVQLVESGGGLVQAGGSLRISCAASGFIFDGYAMGWYRQAPGKERELVAAITYSGGSTYYADSLKGRFTISRDNAKNTVYLQMNRLKPEDTAVYYCNAEYSSFSVVQKDSDMDYWGQGTQVTVSS | low polyreactivity |
| QVQLVESGGGLVQAGGSLRISCAASGFIFRYYTMGWYRQAPGKERELVATITSGGSTYYADSVKGRFTISRDNAKNTVYLQMNSLKPEDTAVYYCAKVRDVLWRFNYWGQGTEVTVSS | high polyreactivity |
| QVQLVESGGGLVQAGGSLRISCAASGFIFTRYVMGWYSQAPGKERELVAGISTRGARTYYADSVKGRFTISRDNAKNTVYLQMNSLKPEDTAVYYCAKDYYKHYYWGQGTQVTVSS | high polyreactivity |
| QVQLVESGGGLVQAGGSLRISCAASGFIYTRYTMGWYRQAPGKERELVAVINSSGGSTYYADSVKGRFTISRDNAKNTVYLQMNSLKPEDTAVYYCNALSRYRIWSYGYWGPGTQVTVSS | high polyreactivity |
| QVQLVESGGGLVQAGGSLRISCAASGFTFFSNAMGWYRKAPGKERELVAAITSSGGSTYADTVKGRFTISRDNAKNTVYLQMNRLKPEDTAVYYCAADAQAPPGGFKEYDYWGQGTQVTVSS | low polyreactivity |
| QVQLVESGGGLVQAGGSLRISCAASGFTFGPYDMGWYRQAPGKERELVAAITDSSGSTHYADSVKGRFTISRDNAKNTVYFQMNSLKPEDTAVYTCAADDSSRTTYYYWGQGTEVTVSS | low polyreactivity |
| QVQLVESGGGLVQAGGSLRISCAASGFTFGRYAMGWYRQAPGKEREFVASISARGGNTFYADSVKGRFTISRDNAKNTVYLQMTSLKPEDTAVYYCNALTYFKRSEYYWGQGTQVTVSS | high polyreactivity |
| QVQLVESGGGLVQAGGSLRISCAASGFTFSLNGMGWYRQAPGKEREMVAAIRSGGSTNYADSVKGRFTISLDNAKYTVYIQMNSLKPEDTAVYYCATDIHSVHNNRDKHDYDYLGQGTQVTVSS | low polyreactivity |
| QVQLVESGGGLVQAGGSLRISCAASGFTFYIYAMGWYRQAPGKERELVAAISARGGSTYYADSVKGRFTISRDNAKNTVYLQMNSLKPEDTAVYYCNALYNYAEIYGRGYWGLGTQVTVSS | high polyreactivity |
